Assay results as given in the domain aggregation screens of Martell et al. (2025).

Experiment: soluble fraction after stress (log2 fold change); higher = more stays soluble; pooled small domains, quantitative proteomics
Settings: stress: pH 4
Outline: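 After pH 4 stress, pooled custom libraries of small protein domains were quantified with high-throughput quantitative proteomics. Aggregation propensity is taken from the fold change in each domain's soluble amount following the acid stress. The scale is log2, where higher values mean more stayed soluble.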

Row | Sequence | soluble fraction (log2)
1 | HMLRNDEAVMLGRRLLNKHLQAFSVQIKDISHQRIHDLLDELELESLDHLLDDIGLGNRSVFLVAQKLLQ | -1.25
2 | HMETKIKFQIQTLDELNIRKVADWDAKAITTVKKGQILDVVDTVAAKNGSTPMYRLESGLYITASPKYVKK | 0.22
3 | HMLRGKNALMSQLDQIQGIGPKRKRALFNHFLTLDAIKQADVETLRQAPGMNLPAAEQVYRHFHM | 0.144
4 | HMTETNSVTINERLTLYRRSRSGRWQARVKLNTGEWHRFSTGTADFEKAKESAHRELHNVGFRAENNLPQ | -0.174
5 | HMIPYSDLLKLLSNDAMPKFRNKDGWAKIHALETYLASRWSYQEYGFASFTVLLETVHNAEIRNDSVRLM | -0.0131
6 | HMPEFKDMLKFFRMREHLSQSELAEKLGISASTVSMYEVGRRQPDFETEEKIADFFNTDLNTLRG | -0.169
7 | HMPAWKINQELQATVIATKANQTRLRIEGQTFETQTAIALKPGQSLLIKVVSLEPQISFALI | 0.199
8 | HMIPPGTITIEGAITKVPVFLDGKQIGTVPLTKEDVEPGKYRIRVLGVGRVITIDPGEKENVLFSGEDLGL | -0.401
9 | HMSEQGVITAKFASIVGNQNIQLVMFPDSVYLKGQVSSEEEKKRAETVASSLIQDRKIVNLIEFE | -0.638
10 | HMTNYSFIVNENFNNKRIDQVVANHYPKISRTKVNKIIKNNLLKLNGSTFNDPSAKVKLGDQIEFENL | 0.00451
11 | HMNIGIVSLAAVPMRKEPSDRAEMVNQILFGETFDVLEEQEKWTLVQLHHDAYQGWIDRKQWDYASGIAD | -1.3
12 | HMDNVINDGMQVRFTGNVDINGTPLKIYDRIYTAEGISDDTVVLMLGNDVYARVYLSDVVPAD | -0.275
13 | HMVQVHEWTNKAGRTIKAKFVRGDAQSVTIFLGGRNFVLKIADLSEESQALARKLSAPPPPP | 0.0306
14 | HMNETHANKVYNFLKKKKKPLSAYEILKELASEGISAPTTIYRALNKLVSNGLIHKIESLNAWTV | 0.185
15 | HMKFLYQKAREEIISLIQDGEIKPSEKIMPERELSELLGYNRMTIKKAINSLVAEGVLMKKRGAGTFLLG | -0.45
16 | HMEEKEIGQTLSVKIRENVLSKLDMTRDLEDEEVKHIIEHEIWLAAKKHYISLEERNSIKRGIFNSL | -0.773
17 | HMQQFGANVRLIRKARQMSIKQLSELSGVSQTMISEVERGLKIPTIDVAGKIAAALGIDLTNLMG | 0.0733
18 | HMVQVRQPAGAGDLFAKGRLHLSTGTIHTVKPLEVDLPKGRLTVVTGVSGSGKTTLILESLLPALAAAAA | 0.307
19 | HMIKITLPDGSVKEYKKGITPAEVAQSISEGLARNVISASYNGKTIETVTPLTTDGSLVLYTWDSPEGK | -0.168
20 | HMERLSNQVYAILKEMIADYRFNPGARINVEQIAKEVGASRTPVWEAVHRLVQEGLLENIPNRGVFML | -1.11
21 | HMDGTAKVAHMLVNELETFNRLKKHEIAYMLHIQPETLSRILNKLTRNGTIEIEKNSVVILNIQELKEIY | -0.271
22 | HMGMESFWNRVANLLNTSTVVELAQILDVKRSTLSSWIHSDRRPPMEVLLKITRLTGVDIHRLE | -0.576
23 | HMEVLPLHQVKLKYAEADTILIALKSAQSMLSPRGQLLADNRSQQIFVYDDEAHTATLIEAIKHLDQPL | -0.32
24 | HMNLLQAHLLRLESAALLAEVREVDRQLSRWLHPLTPQSDVAIIDERNWEAAVARLTELGVHIEEGRW | -1.67
25 | HMNKEDIASNEKLLGLLNHMSKVLKDIDFIKDDRPMIVRKINHIFKKATLSEEEINILRGVLSAIENHS | -0.104
26 | HMKRVPFAFAGDMLRWAAWLYHVEKRTQNEIAEELEVSRQTVANYLSEAMSQGLVQVQLRSDIIE | -1.39

Row | Sequence | soluble fraction (log2)
27 | HMVKNVVIPDVSNKAPVDASNQLTDLGFEVVTEYKYIASDTIEEGKVVKTSPEIGSKRKYGQKITLYISSG | 0.205
28 | HMGDIMLLFKENGKVYFLVGNQYTYVKNPTELSAIKTMMKQAGYDTHEHTNTTQVAYIKRLATE | -0.419
29 | HMENIIKISASYEGLRVDQFLSNYLKISRSKVQKYISEEKIFLNNVPTKTNRKVKLDDIISYNLNF | 0.0839
30 | HMLPVLEIGTMIRIIRQPHFGTIARVVALPEELTKVESETLVRILDAEFDDGTRVRIPRANVEVIE | -1.37
31 | HMAPFVIQQGQDVRLISKGPGFAVSNDGKALTNAAEGQLARARTANGQTVSGIARQGGIIEIA | -0.068
32 | HMSPPALAVQRDGSNVQISWPGAEEGWRLESSAEPSGAAWDLIAQNPTPVGGRWTVSLTEPTGRRFYRLVK | 0.039
33 | HMISAVDLMAARRKIEAGITNLQPGQAFTLPNKVGWVKRMTGGSYFIQGNGGYTASVRTISEAIQAAAMLL | -0.0224
34 | HMVKFGERVKQLRLSAGMTQEQLAERIWVTKAAISNYELSERNPSPETIIKIAGVFGVTTDYLLGLED | -0.434
35 | HMLNENNHGEWSIRMSNGLVVRLGRDELNRSLRRSIMAYAGLAPNYRSSIEYIDARYLGGVALKTF | -0.159
36 | HMTTIHVDPEKISKIIGPGGKTIKKIVEETGAKIDIEEDGRVYIAAVNSEEAAKAIDMINGI | -0.274
37 | HMFMMVAGHLQIKNEKYYMVLELRTEQGERKTKWIGTGLAVKGNKRRAEAMLEETRTKYLSPV | -0.177
38 | HMDYYKILGLSTSATLDQIKKAFRQLAIEFHPDKNPNNPTAEDKFQRISEAYAVLSNPEKRAEYDRSY | -0.17
39 | HMVSLSNQVFEKIEYDILSGKYKIGEIISEKRLSSELGVSRTPIREALGRLSEEGLVGDSPSGTVVLGI | -0.287
40 | HMRKTYHVDAYQDDKWWVLQVQEMPNAISQVKSLDQADEWIREAINIVSNEPEDSFDVVIIPV | -1.54
41 | HMDEWKRKELWDAIARLPKIQRMVVTMRTTENLPYKEIAKIMNISENSAKVNYHHAVEALKIFF | 0.0454
42 | HMNQDQDLSRIKGIGPEMVDRLHAQGVETLEQIAAMQMEQLKKLDQQISGNGKAVREQWAEQAKQLLTT | -0.331
43 | HMIGVNMEKSTVEKFANELNLPIDLLLKQLESAGIKKTSGAEELLEADKSALLNYLQIEHGA | -0.678
44 | HMVNPDAPAPLYIVNGKETDKNIALAIKPEDVQDVRIIKNTVALQVYGEKGKNGVVIINTKPGV | 0.0604
45 | HMKLVAAGYHQNRLLVLLGIQAEELQAKRLLASFDRFRGREATPKPPIHDSARRWLRDTYHHVMNQVPVEL | -0.432
46 | HMDAVDKDGNHMTFKKWSEQLQEAFHALELYDTTRAKQILSELVKFQVDSDITKSLKAIITNIDDMMA | -1.5
47 | HMDTRKKLEQIFKLFDKTGTGMVNIDEFKSVLKLFMEEIDEKFGNYFIAYFDENGDGKIEFEEFADVVL | -0.462
48 | HMAIHTSVTEHGEHDLTVRMEMEQVFAIEMAVVSHEQATMLERTFKANAEAIYQKLLGVMTQEYP | -0.841
49 | HMKMHKIIKERRLALNFTQEQVAKYLGVTTPAVNKWEKGISYPDISLLPALARLLDTDLNTLLSF | -1.26
50 | HMNKFKVNERVRVIATGEIGIVKGREILPVEGSKRVNIEYLVKVGNGFSNWKAFSKKELEPVR | ≥ 0.43
51 | HMQISYDVPNLIGKSYEEVMTDPSILGEHFTVVLGETKTDEDTDAGVILHQDPAADSKVQDEVTPITVTVS | 0.0589
52 | HMDIAATTVKQKIRTLLADEDAARPLSDQKIADALAEDGIDVARRTVAKYREELGIEPSWARKR | 0.0608

Row | Sequence | soluble fraction (log2)
53 | HMSFGKKLRSLRQEKKLSQVELSKKLNVTSQALSQYELGKRIPDAEMIIRIADFFDVSVDYLLDRT | -0.137
54 | HMTYKPAADFKPSDTSSLKEGMKVEHPKFGFGTVMKMEEVGTERKARINFADFGEKTLLLSFAKLKIHEN | -0.361
55 | HMPPNVLSEREQEVLQLAADGMSNKEMGSELYIAPTTVRDHMQSIMRKLQVNSRTAAAVAGLKLGLLD | -0.422
56 | HMAMDYYAIGQRIRKFRKAHDWSQEELAEKVEISTTHMSHIETGSTKLSLPVLVSLANVLDVRTDDLLF | -0.272
57 | HMKSYTYNPNYLSDYNAYRLGIPLEALERLQLHRSTGRYVNSLSDFQSVTGISDSLKHSLSSSLRFPN | -0.564
58 | HMDAQEAAWARKMMETLPEKQKLSVALRIEEGLSFKEIGEIIGSSEGAARVNYFHGIRRLRELL | -0.768
59 | HMVEDIVLTDAQIEFVKQQAKNGLSAFQISEMIWPEMSVKRFSKQHVAVLDFLREYEPAYVHDSE | -1.85
60 | HMKLTINIDAAHDGKTIKQLFAEKGYSLELIKKFKYDGAIEVNGERKTVRWVLREGDLLVLEAN | -0.683
61 | HMASALDVALNDFAEMRKKMRKPLTDRALALTLSELEKLAPGNDEKKIAILNQSIQRGWQGVFPLK | 0.0901
62 | HMENNIPANIKALIISYVNQNYPGAVIHSIERNSNGTYDVEIYYNNREYDLLFDAQGNFISGNVDDQ | -0.366
63 | HMSRYLLPYAFARTQQVLLEEKSGELTLWMHSGSNLGGISEVTRKYAVQHVTHEPMDALLNRISSAYAN | -2.03
64 | HMLMKILTDALEKMSPEELKELAEATGVKNTSSITPETMVGVFQAVFRVGGFKSYQLTLIIVNAVLKA | -0.398
65 | HMQTKNYVYFNNTENWSTVNVYVWSSKDSTYMSWPGKAMESIGNNTYRFELPNGAEYAIFNNGSAQTVD | -0.185
66 | HMREVGVPNLRGLTAEEAQIVLSNAGLNLRTEPIRRVHETITVGRIAEQDPMPDLTIRSQRSVTTWLSSGP | -0.268
67 | HMYMKTITEQFGERLKKIRTQKSLSQEQLSYLADIDRSYISDVERGARNISLENIYKLASALNIPPYLVLL | -0.344
68 | HMGRSTQVPGVEKMTYSQAVQLLHDHGFRVDIRDSLYRDDIKPGHVIEQFPKAKSIVKPGRKIFLYINAV | 0.105
69 | HMDNREKLRQEFLENLKELQEQNDIPQQEIDRVILDYDGVAEFLEDEGALKRYGGQLVDMTAYRAGAIPS | -2
70 | HMIVKQPDIRKQELLDIGVRLYFEAGEKGVSIQQVVKQAGVATGLFYYYFSSKDAFLDEALNDYID | -0.0638
71 | HMYTVRDGDTVFGILNRFGVSLDELLSLNPELSNGLKAGMVLKIK | -1.13
72 | HMKLLLSANISKLRKKYSMTQEQLAEALGVTFASVSKWERGVATPELKLIAEMADMFEVSIDALIGYEFRN | -1.41
73 | HMYPEETVNKILDVSMQLFLEKGYEHTSIQDIVNHLGGLSKGAIYHHFKSKEDILDGVMNKLYQNN | -0.941
74 | HMVAAITDLPVKSVNGRQMYYYVVRKGETVYSLTHTLGITHDRLVKANRSVEDGLRAGQILYFPVSEFG | -0.00401
75 | HMEMELNHVARRAGRLSGFLKGELRLSTGLMNRLKWSNAILVNGKPARTNAQVEPGDRITVILD | 0.189
76 | HMETQAGELQDAIRDAIAALPPRTREVFLMSRERNLRYGEIAEALGISVKAVEANMSRALRQLREKLSPFL | 0.108
